Legend:
Test in all cases: 35S-HRV14 on COS cells
ICAM-1 R125/E = ICAM-1 R125/E (human, UniProt P05362)
Description: (§1) COS cells were seeded into 10 cm tissue culture plates such that they would be 50% confluent by 16-24 hrs. COS cells were then washed once with TBS and incubated for 4 hrs with 4 ml RPMI containing 10% Nu sera (Collaborative) 5 pg/ml chloroquine, 3 μg of mutant plasmid and 200 μg/ml DEAE-dextran sulfate. Cells were then washed with 10% DMSO/PBS followed by PBS and cultured 16 hrs in culture media. Culture media was replaced with fresh media and at 48 hrs post transfection (OS cells were suspended by trypsin/EDTA (Gibco) treatment and divided into 2, 10 cm plates as well as 24 well tissue culture plates for HRV binding. At 72 hrs cells were harvested from 10 cm plates with 5 mM EDTA/HBSS and processed for adhesion to LFA-1 coated plastic and immunofluorescence.
(§2) Binding occurred in 1 hr at 35° C. in a 5% CO₂ atmosphere with horizontal rotation (100 rpm). Unbound [³⁵S] HRV14 was aspirated, COS cells were gently washed with 150 ml of HRV buffer and then solubilized with 1% SDS in PBS for scintillation counting.
(§3) In Table 25, the notation for the mutations uses the one-letter code for the wild-type sequence followed by a slash and the one-letter code for the corresponding mutant sequence. The position of the first amino acid within the sequence is indicated. Wild type residues precede the slash followed by the residues they were substituted for in the mutant. COS cells expressing ICAM-1 mutants were tested for adherence to LFA-1 coated plastic and for binding 35S met-labeled HRV14. […] Binding is presented as mean and standard error (SE) for multiple experiments (n). […] The specific linear fluorescence intensity (SLFI) of CL203 for each mutant is normalized to that of wild type CL203 SLFI (% WT) as discussed above. The SLFI of RR1/1, R6.5 and LB-2 SLFI is normalized to the CL203 SLFI of the mutant (% CL203) as described above.

ICAM-1 D71GQS/NGEL = ICAM-1 D71GQS/NGEL (human, UniProt P05362)
Description: as §1, §2, §3

ICAM-1 D26QPK/ALPE = ICAM-1 D26QPK/ALPE (human, UniProt P05362)
Description: as §1, §2, §3

ICAM-1 R149RD/EEG = ICAM-1 R149RD/EEG (human, UniProt P05362)
Description: as §1, §2, §3

ICAM-1 E90/K = ICAM-1 E90/K (human, UniProt P05362)
Description: as §1, §2, §3

ICAM-1 Q58EDS/AKDI = ICAM-1 Q58EDS/AKDI (human, UniProt P05362)
Description: as §1, §2, §3

ICAM-1 R13G/EA = ICAM-1 R13G/EA (human, UniProt P05362)
Description: as §1, §2, §3

ICAM-1 Q62PM/API = ICAM-1 Q62PM/API (human, UniProt P05362)
Description: as §1, §2, §3

ICAM-1 A189T/SI = ICAM-1 A189T/SI (human, UniProt P05362)
Description: as §1, §2, §3

ICAM-1 R13/K = ICAM-1 R13/K (human, UniProt P05362)
Description: as §1, §2, §3

ICAM-1 R166PQ/EPA = ICAM-1 R166PQ/EPA (human, UniProt P05362)
Description: as §1, §2, §3

ICAM-1 N68/K = ICAM-1 N68/K (human, UniProt P05362)
Description: as §1, §2, §3

ICAM-1 M64/I = ICAM-1 M64/I (human, UniProt P05362)
Description: as §1, §2, §3

ICAM-1 S74/A = ICAM-1 S74/A (human, UniProt P05362)
Description: as §1, §2, §3

ICAM-1 S61/I = ICAM-1 S61/I (human, UniProt P05362)
Description: as §1, §2, §3

ICAM-1 Q73/T = ICAM-1 Q73/T (human, UniProt P05362)
Description: as §1, §2, §3

ICAM-1 E127/R = ICAM-1 E127/R (human, UniProt P05362)
Description: as §1, §2, §3

ICAM-1 E34/A = ICAM-1 E34/A (human, UniProt P05362)
Description: as §1, §2, §3

ICAM-1 N56V/HM = ICAM-1 N56V/HM (human, UniProt P05362)
Description: as §1, §2, §3

ICAM-1 N240DS/KNA = ICAM-1 N240DS/KNA (human, UniProt P05362)
Description: as §1, §2, §3

ICAM-1 E111GGA/KAGS = ICAM-1 E111GGA/KAGS (human, UniProt P05362)
Description: as §1, §2, §3

ICAM-1 D60/Q = ICAM-1 D60/Q (human, UniProt P05362)
Description: as §1, §2, §3

ICAM-1 Y52/F = ICAM-1 Y52/F (human, UniProt P05362)
Description: as §1, §2, §3

ICAM-1 N118/Q = ICAM-1 N118/Q (human, UniProt P05362)
Description: as §1, §2, §3

ICAM-1 H152HGA/EEGS = ICAM-1 H152HGA/EEGS (human, UniProt P05362)
Description: as §1, §2, §3

ICAM-1 T20CS/ACT = ICAM-1 T20CS/ACT (human, UniProt P05362)
Description: as §1, §2, §3

ICAM-1 D229QR/HLE = ICAM-1 D229QR/HLE (human, UniProt P05362)
Description: as §1, §2, §3

ICAM-1 K50V/EL = ICAM-1 K50V/EL (human, UniProt P05362)
Description: as §1, §2, §3

ICAM-1 T75/A = ICAM-1 T75/A (human, UniProt P05362)
Description: as §1, §2, §3

B1: human rhinovirus 14 (HRV14) (other)
chain: GAQVSTQKSGSHENQNILTNGSNQTFTVINYYKDAASTSSAGQSLSMDPSKFTEPVKDLMLKGAPALNSPNVEACGYSDRVQQITLGNSTITTQEAANAVVCYAEWPEYLPDVDASDVNKTSKPDTSVCRFYTLDSKTWTTGSKGWCWKLPDALKDMGVFGQNMFFHSLGRSGYTVHVQCNATKFHSGCLLVVVIPEHQLASHEGGNVSVKYTFTHPGERGIDLSSANEVGGPVKDVIYNMNGTLLGNLLIFPHQFINLRTNNTATIVIPYINSVPIDSMTRHNNVSLMVIPIAPLTVPTGATPSLPITVTIAPMCTEFSGIRSKSIVPQGLPTTTLPGSGQFLTTDDRQSPSALPNYEPTPRIHIPGKVHNLLEIIQVDTLIPMNNTHTKDEVNSYLIPLNANRQNEQVFGTNLFIGDGVFKTTLLGEIVQYYTHWSGSLRFSLMYTGPALSSAKLILAYTPPGARGPQDRREAMLGTHVVWDIGLQSTIVMTIPWTSGVQFRYTDPDTYTSAGFLSCWYQTSLILPPETTGQVYLLSFISACPDFKLRLMKDTQTISQTVALTEGLGDELEEVIVEKTKQTVASISSGPKHTQKVPILTANETGATMPVLPSDSIETRTTYMHFNGSETDVECFLGRAACVHVTEIQNKDATGIDNHREAKLFNDWKINLSSLVQLRKKLELFTYVRFDSEYTILATASQPDSANYSSNLVVQAMYVPPGAPNPKEWDDYTWQSASNPSVFFKVGDTSRFSVPYVGLASAYNCFYDGYSHDDAETQYGITVLNHMGSMAFRIVNEHDEHKTLVKIRVYHRAKHVEAWIPRAPRALPYTSIGRTNYPKNTEPVIKKRKGDIKSY
modifications: [35S]-Met labeled
HRV Binding % (ICAM-1 R125/E): 157 % of wild type | HRV Binding % (ICAM-1 D71GQS/NGEL): 21 % of wild type | HRV Binding % (ICAM-1 D26QPK/ALPE): 13 % of wild type | HRV Binding % (ICAM-1 R149RD/EEG): 139 % of wild type | HRV Binding % (ICAM-1 E90/K): 50 % of wild type | HRV Binding % (ICAM-1 Q58EDS/AKDI): 0 % of wild type | HRV Binding % (ICAM-1 R13G/EA): 3 % of wild type | HRV Binding % (ICAM-1 Q62PM/API): 182 % of wild type | HRV Binding % (ICAM-1 A189T/SI): 168 % of wild type | HRV Binding % (ICAM-1 R13/K): 123 % of wild type | HRV Binding % (ICAM-1 R166PQ/EPA): 25 % of wild type | HRV Binding % (ICAM-1 N68/K): 137 % of wild type | HRV Binding % (ICAM-1 M64/I): 107 % of wild type | HRV Binding % (ICAM-1 S74/A): 156 % of wild type | HRV Binding % (ICAM-1 S61/I): 111 % of wild type | HRV Binding % (ICAM-1 Q73/T): 133 % of wild type | HRV Binding % (ICAM-1 E127/R): 131 % of wild type | HRV Binding % (ICAM-1 E34/A): 66 % of wild type | HRV Binding % (ICAM-1 N56V/HM): 101 % of wild type | HRV Binding % (ICAM-1 N240DS/KNA): 82 % of wild type | HRV Binding % (ICAM-1 E111GGA/KAGS): 162 % of wild type | HRV Binding % (ICAM-1 D60/Q): 20 % of wild type | HRV Binding % (ICAM-1 Y52/F): 174 % of wild type | HRV Binding % (ICAM-1 N118/Q): 110 % of wild type | HRV Binding % (ICAM-1 H152HGA/EEGS): 82 % of wild type | HRV Binding % (ICAM-1 T20CS/ACT): 130 % of wild type | HRV Binding % (ICAM-1 D229QR/HLE): 106 % of wild type | HRV Binding % (ICAM-1 K50V/EL): 10 % of wild type | HRV Binding % (ICAM-1 T75/A): 119 % of wild type

— US20090035321A1, “Intercellular adhesion molecules and their binding ligands” (Boehringer Ingelheim Pharmaceuticals, Inc., published 2009)
